Assay results from article PMC4310620.

How the values were obtained:
Test in all cases: purified protein
Format in all cases: biochemical, Chromohalobacter israelensis
purified protein [1] = substrate: C[C@H](N)CO; conditions: 50 mM L-glutamate, 5 mM ATP, 15 mM MgCl2, pH 7.9, 25 °C
purified protein [2] = substrate: NCCO; conditions: 50 mM L-glutamate, 5 mM ATP, 15 mM MgCl2, pH 7.9, 25 °C
purified protein [3] = substrate: N[C@@H](CCC(=O)O)C(=O)O; conditions: 20 mM ethanolamine, 5 mM ATP, 15 mM MgCl2, pH 7.9, 25 °C

B1: Csal_0679 (Chromohalobacter israelensis DSM 3043) (protein)
chain: MTNTLALDDLKTRVESGEIDTVLVCIVDMQGRLMGKRLHARHFVDHGWEETHCCNYLLATDLEMATPGGYASTSWQAGYGDYIMKPDLATLRCVPWLEGTAMVLCDLLDHRTHAEVPHAPRAILKRQLARLEAMGLEAIMATELEFFLFEKSLDEIRKGRFRDLQPISGYNEDYHIFQTTKEEHVLRPLRNHLHAAGIPVEGTKGEAGAGQEELNIRCAKALDTADYHTIAKHATKEIAWQQGRAVTFLSKWHHAHAGSSSHIHQSLWKQGLPAFHDERDALGMSALMKHYLAGLLKYAPDYTYFLAPYLNSYKRFQKGTFAPTRTVWSVDNRTAGFRLCAEGTRAVRIECRIGGSDLNPYLAMAGQLAAGIKGIEECLALPPPAEGDTYEGGSGLIPQNLRDAMEALRGSTMLREAMGEDVVDHYVRAAEVELEDFQRVVSDYEVARGFERC
Km (purified protein [1]): 100 ± 10 µM
kcat (purified protein [1]): 0.35 ± 0.01 s⁻¹
kcat/Km (purified protein [1]): 3400 M⁻¹ s⁻¹
Km (purified protein [2]): 34 ± 4 µM
kcat (purified protein [2]): 0.38 ± 0.009 s⁻¹
kcat/Km (purified protein [2]): 11000 M⁻¹ s⁻¹
Km (purified protein [3]): 7800 ± 1000 µM
kcat (purified protein [3]): 0.4 ± 0.02 s⁻¹
kcat/Km (purified protein [3]): 51 M⁻¹ s⁻¹
